Data: article PMC5770445

Tests used:
His-LpxA (C. sakazakii) = His-LpxA (C. sakazakii) (UniProt A7MI18)
[1] = target: Labp V94A expressed from pKT25 (C. sakazakii); test: two-hybrid; bacterial adenylate cyclase-based two-hybrid (BACTH) in E. coli BTH101, pKT25 and pUT18C fusions, β-galactosidase activity in Miller units

## His-CSK29544_02616 (His×6-tagged CSK29544_02616 product, Labp) (natural protein)
His-LpxA (C. sakazakii)
  LpxA enzymatic activity: fluorescence of ThioGlo-ACP conjugates (RFU) with UDP-GlcNAc and R-3-hydroxymyristoyl-ACP; 10 nM LpxA with 300 nM His-CSK29544 02616 against LpxA alone: 2 fold

B1: LpxA expressed from pUT18C (enzyme)
chain: MIDKTAFIHPTAIVEEGAVIGANAHIGPFCIVGPDVKIGEGTVLKSHVVVNGHTTIGRDNEIYQFASIGEVNQDLKYAGEPTRVEIGDRNRIRESVTIHRGTAQGGGLTKVGSDNLLMINAHVAHDCTVGNRCILANNATLAGHVSVDDFAIIGGMTAVHQFCIIGAHVMVGGCSGVAQDVPPYVIAQGNHATPFGVNIEGLKRRGFSKEALHAIRNAYKLLYRSGKTLDEVKPEIAEIAAKHPEVQPFYDFFARSTRGLIR
[1]
  fold reduction in ß-galactosidase activity compared to intact Labp: 4 fold
